Earlier results as cited in PMC3786701.

Molecular target: SNARE complex (Rattus norvegicus) (UniProt P32851)
UniProt P32851, sequence (P32851 whole entry, chain 1 of 3): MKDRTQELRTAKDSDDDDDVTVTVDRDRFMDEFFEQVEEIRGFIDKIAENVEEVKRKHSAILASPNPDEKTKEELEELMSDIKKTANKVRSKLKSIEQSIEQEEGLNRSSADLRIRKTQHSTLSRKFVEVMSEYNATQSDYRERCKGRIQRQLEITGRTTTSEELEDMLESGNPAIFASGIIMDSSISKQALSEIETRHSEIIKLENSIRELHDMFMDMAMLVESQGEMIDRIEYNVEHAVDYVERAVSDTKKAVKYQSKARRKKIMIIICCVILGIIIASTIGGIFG
UniProt P32851, sequence (B2RAU4 whole entry, chain 2 of 3, further chain): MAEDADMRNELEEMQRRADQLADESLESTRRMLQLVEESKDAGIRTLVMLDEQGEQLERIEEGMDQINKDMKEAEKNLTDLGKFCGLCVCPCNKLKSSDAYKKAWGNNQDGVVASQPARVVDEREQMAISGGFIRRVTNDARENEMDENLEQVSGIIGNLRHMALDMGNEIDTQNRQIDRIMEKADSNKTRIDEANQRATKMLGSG
UniProt P32851, sequence (P63044 2-116, chain 3 of 3, further chain): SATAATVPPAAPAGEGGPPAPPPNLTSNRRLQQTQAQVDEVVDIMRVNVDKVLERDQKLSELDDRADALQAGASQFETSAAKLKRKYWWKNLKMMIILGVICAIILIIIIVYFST

- Kd: 1000 nM
Substance: synaptotagmin-1 C2AB (from UniProt P21707)
